This note sets out measurements from US20170296628A1 (GRIFFON PHARMACEUTICALS, published 2017).

The chains are these.
B1: Analog 15 (C9) (peptide)
peptide: Y[dA]DAIFTACYR[Orn]VLAQLSAR[Orn]ALQDILS[hArg]-NH2
modifications: not fully specified (residue 9); printed as YaDAIFTAC(Peg-5K)YROVLAQLSAROALQDILS(Har)-NH2

Non-standard residues stand in square brackets, D forms with d. No end group written: not given here. hArg = N=C(N)NCCCC[C@H](N)C(=O)O; Orn = NCCC[C@H](N)C(=O)O

The first test addresses T1, human GHRH receptor (human, UniProt Q02643 23-423).
T1 sequence (looked up): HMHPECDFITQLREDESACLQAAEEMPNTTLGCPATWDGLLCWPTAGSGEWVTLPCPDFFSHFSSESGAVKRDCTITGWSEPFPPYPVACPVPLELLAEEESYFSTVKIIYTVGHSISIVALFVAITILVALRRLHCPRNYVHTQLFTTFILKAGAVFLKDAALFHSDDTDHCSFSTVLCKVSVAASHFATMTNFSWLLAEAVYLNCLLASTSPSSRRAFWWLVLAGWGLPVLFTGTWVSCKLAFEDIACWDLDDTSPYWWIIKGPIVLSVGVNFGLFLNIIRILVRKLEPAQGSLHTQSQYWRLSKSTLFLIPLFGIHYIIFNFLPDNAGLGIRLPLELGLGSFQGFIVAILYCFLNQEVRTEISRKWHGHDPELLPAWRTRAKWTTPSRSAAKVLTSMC
In words: cell-based or functional assay.
For YADAIFTNSYRKVLGQLSARKLLQDIMSX (C-terminal amide) [Human GHRH1-29], the “Max Response (%)” value turned out to be 104% and the “Potency (%) (% EC50 compared to baseline)” value (shortened to “Potency (%)”) came to 100%.
As for Y[dA]DAIFTASYR[Orn]VLC(PEG 2 kDa)QLSAR[Orn]ALQDILSKN-NH2 [Analog 5 (C15)], the “EC50 (nM), Hit Hunter cAMP agonist assay” value is 1.38 nM; the “Max Response (%)” value worked out at 107%; the “Potency (%)” value stood at 26%.
For Y[dA]DAIFTASYR[Orn]VLAQLSAR[Orn]ALQDC(PEG 2 kDa)LSKN-NH2 [Analog 8 (C26)], in that order: 0.98 nM, 106% and 37%.
With Y[dA]DAIFTASYR[Orn]VLAQLSAR[Orn]ALC(PEG 2 kDa)DILSKN-NH2 [Analog 2 (C24)], the “EC50 (nM), Hit Hunter cAMP agonist assay” value came to 0.28 nM; the “Max Response (%)” value turned out to be 108%; the “Potency (%)” value amounted to 130%.
For Y[dA]DAIFTASYR[Orn]VLAC(PEG 2 kDa)LSAR[Orn]ALQDILSKN-NH2 [Analog 9 (C16)], in that order: 0.92 nM, 107% and 39%.
Turning to Y[dA]DAIFTASYR[Orn]VLAQLSC(PEG 2 kDa)R[Orn]ALQDILSKN-NH2 [Analog 4 (C19)], the “EC50 (nM), Hit Hunter cAMP agonist assay” value was 1.32 nM; the “Max Response (%)” value came to 94.9%; the “Potency (%)” value worked out at 27%.
Take Y[dA]DAIFTASYR[Orn]VLAQLSAR[Orn]ALQDILC(PEG 2 kDa)KN-NH2 [Analog 1 (C28)]: the “EC50 (nM), Hit Hunter cAMP agonist assay” value was 0.29 nM; the “Max Response (%)” value turned out to be 105%; the “Potency (%)” value amounted to 125%.
Turning to Y[dA]DAIFTASYR[Orn]VLAQLSAR[Orn]C(PEG 2 kDa)LQDILSKN-NH2 [Analog 3 (C22)], the “EC50 (nM), Hit Hunter cAMP agonist assay” value was 0.25 nM; the “Max Response (%)” value was found to be 100%; the “Potency (%)” value was 143%.
Take Y[dA]DAIFTC(PEG 2 kDa)SYR[Orn]VLAQLSAR[Orn]ALQDILSKN-NH2 [Analog 7 (C8)]: the “EC50 (nM), Hit Hunter cAMP agonist assay” value is 0.69 nM; the “Max Response (%)” value was 108%; the “Potency (%)” value turned out to be 52%.
In the case of Y[dA]DAIFTAC(PEG 2 kDa)YR[Orn]VLAQLSAR[Orn]ALQDILSKN-NH2 [Analog 6 (C9)], the “EC50 (nM), Hit Hunter cAMP agonist assay” value is 0.29 nM; the “Max Response (%)” value amounted to 102%; the “Potency (%)” value came out at 123%.

In a further test the target is T1, human GHRH receptor. In words: cell-based or functional assay. The source holds these as a separate data set.
As to Y[dA]DAIFTAC(PEG 2 kDa)YR[Orn]VLAQLSAR[Orn]ALQDILSRNC(PEG 2 kDa)-NH2 [Analog 11 (C9,31)], the “EC50 (nM), Hit Hunter cAMP agonist assay” value was found to be 0.47 nM; the “Max. response (%)” value was found to be 97.2%; the “Potency (%)” value stood at 314%.
Turning to Y[dA]DAIFTAC(PEG 2 kDa)YR[Orn]VLAQLSAR[Orn]ALQDILS[hArg]-NH2 [Analog 10 (C9)], the “EC50 (nM), Hit Hunter cAMP agonist assay” value came out at 0.11 nM; the “Max. response (%)” value amounted to 96.2%; the “Potency (%)” value was 1400%.
Regarding YADAIFTNSYRKVLGQLSARKLLQDIMSX (C-terminal amide) [Human GHRH1-29], the “Max. response (%)” value was 113% and the “Potency (%)” value turned out to be 100%.
Turning to Y[dA]DAIFTAC(PEG 2 kDa)YR[Orn]VLAQLSAR[Orn]C(PEG 2 kDa)LQDILSRN-NH2 [Analog 14 (C9,22)], the “EC50 (nM), Hit Hunter cAMP agonist assay” value turned out to be 0.73 nM; the “Max. response (%)” value is 97.2%; the “Potency (%)” value was 203%.
On to B1, for which the “EC50 (nM), Hit Hunter cAMP agonist assay” value is 0.22 nM; the “Max. response (%)” value came out at 94.3%; the “Potency (%)” value came out at 669%.
For Y[dA]DAIFTAC(PEG 2 kDa)YR[Orn]VLAQLSAR[Orn]ALC(PEG 2 kDa)DILSRN-NH2 [Analog 13 (C9,24)] the same measures were 0.41 nM, 103% and 361%.
For the molecule Y[dA]DAIFTAC(PEG 2 kDa)YR[Orn]VLAQLSAR[Orn]ALQDILC(PEG 2 kDa)RN-NH2 [Analog 12 (C9,28)], the “Max. response (%)” value amounted to 102% and the “Potency (%)” value was determined as 416%.
For Y[dA]DAIFTAC(PEG 40 kDa)YR[Orn]VLAQLSAR[Orn]ALQDILS[hArg]-NH2 [Analog 16 (C9)], the “EC50 (nM), Hit Hunter cAMP agonist assay” value came to 0.74 nM; the “Max. response (%)” value came to 93.7%; the “Potency (%)” value is 200%.
